For orientation: Kd means the free concentration of one partner at which half of the binding sites on the other are occupied at equilibrium, for simple one-to-one binding.

Experiment [1] deals with Imp9•XFD488-H2A-H2B complex (human | frog) (UniProt Q96P70). In words: fluorescence polarisation. A general note: In fluorescence polarisation assays a small probe gives low polarisation when free and higher when bound to something large.
For experiment [2], the target named is Kap114•XFD488-H2A-H2B complex (yeast | frog) (UniProt P53067). In words: fluorescence polarisation.

Consider “yeast RanGTP (Saccharomyces cerevisiae Gsp1 residues 1-179 with Q71L) (from UniProt P32835 1-179) (domain or fragment)”, for which the Kd in experiment [1] was determined as 0.15 µM; in experiment [2], 0.27 µM.
